{"source": "the supplement of paper PMC9112550", "about": "“Optimization of the antimicrobial peptide Bac7 by deep mutational scanning” (BMC Biology, 2022);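 note: peptides expressed intracellularly from a pBAD plasmid library in pooled LB shake-flask culture, induced with 0.3% L-arabinose, DNA abundance read by NGS, three biological replicates, DESeq2 with apeglm shrinkage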", "data": [{"test_system": "Escherichia coli TOP10", "experiment": "shrunken log2 fold change of peptide-encoding DNA abundance (4.5 h post-induction vs induction); higher = less antimicrobial activity (less host growth inhibition)", "conditions": "time post-induction: 4.5 h; library: site-saturation at positions 5, 18, 19, 20", "values": [{"sequence": "RRIRSRPPRLPRPRPRPHNFPRP", "shrunken log2 fold change": -0.49}, {"sequence": "RRIRRRPPRLPRPRPRPRGAPRP", "shrunken log2 fold change": 0.8}, {"sequence": "RRIRARPPRLPRPRPRPVSFPRP", "shrunken log2 fold change": 0.368}, {"sequence": "RRIRQRPPRLPRPRPRPMIMPRP", "shrunken log2 fold change": 0.0999}, {"sequence": "RRIRRRPPRLPRPRPRPVEYPRP", "shrunken log2 fold change": -0.00275}, {"sequence": "RRIRCRPPRLPRPRPRPSKSPRP", "shrunken log2 fold change": -0.0548}, {"sequence": "RRIRTRPPRLPRPRPRPVDRPRP", "shrunken log2 fold change": 0.141}, {"sequence": "RRIRRRPPRLPRPRPRPMVYPRP", "shrunken log2 fold change": 0.119}, {"sequence": "RRIRNRPPRLPRPRPRPDSWPRP", "shrunken log2 fold change": -0.125}, {"sequence": "RRIRMRPPRLPRPRPRPEYGPRP", "shrunken log2 fold change": 0.132}, {"sequence": "RRIRARPPRLPRPRPRPLWKPRP", "shrunken log2 fold change": 0.121}, {"sequence": "RRIRDRPPRLPRPRPRPFPKPRP", "shrunken log2 fold change": -0.201}, {"sequence": "RRIRHRPPRLPRPRPRPCLIPRP", "shrunken log2 fold change": -0.11}, {"sequence": "RRIRQRPPRLPRPRPRPPWQPRP", "shrunken log2 fold change": 0.729}, {"sequence": "RRIRPRPPRLPRPRPRPSSGPRP", "shrunken log2 fold change": -0.494}, {"sequence": "RRIRNRPPRLPRPRPRPYPLPRP", "shrunken log2 fold change": -0.042}, {"sequence": "RRIRNRPPRLPRPRPRPRMFPRP", "shrunken log2 fold change": -0.362}, {"sequence": "RRIRCRPPRLPRPRPRPPYEPRP", "shrunken log2 fold change": -0.306}, {"sequence": "RRIRYRPPRLPRPRPRPFRQPRP", "shrunken log2 fold change": 0.0775}, {"sequence": "RRIRLRPPRLPRPRPRPWPMPRP", "shrunken log2 fold change": -0.0188}, {"sequence": "RRIRRRPPRLPRPRPRPSNLPRP", "shrunken log2 fold change": 0.112}, {"sequence": "RRIRCRPPRLPRPRPRPNGGPRP", "shrunken log2 fold change": -0.00453}, {"sequence": "RRIRRRPPRLPRPRPRPIYFPRP", "shrunken log2 fold change": 0.124}, {"sequence": "RRIRNRPPRLPRPRPRPVHRPRP", "shrunken log2 fold change": -0.0338}, {"sequence": "RRIRARPPRLPRPRPRPGVWPRP", "shrunken log2 fold change": 1.55}, {"sequence": "RRIRKRPPRLPRPRPRPNKQPRP", "shrunken log2 fold change": -0.0316}, {"sequence": "RRIRHRPPRLPRPRPRPPMEPRP", "shrunken log2 fold change": -0.0615}, {"sequence": "RRIRARPPRLPRPRPRPMPIPRP", "shrunken log2 fold change": 0.708}, {"sequence": "RRIRRRPPRLPRPRPRPWNRPRP", "shrunken log2 fold change": -0.049}, {"sequence": "RRIRTRPPRLPRPRPRPDAWPRP", "shrunken log2 fold change": 0.285}, {"sequence": "RRIRMRPPRLPRPRPRPDHMPRP", "shrunken log2 fold change": 0.0296}, {"sequence": "RRIRVRPPRLPRPRPRPQHCPRP", "shrunken log2 fold change": 0.0856}, {"sequence": "RRIRIRPPRLPRPRPRPFIIPRP", "shrunken log2 fold change": -1.76}, {"sequence": "RRIRFRPPRLPRPRPRPITLPRP", "shrunken log2 fold change": -0.274}, {"sequence": "RRIRHRPPRLPRPRPRPNKNPRP", "shrunken log2 fold change": -0.717}, {"sequence": "RRIRHRPPRLPRPRPRPVIMPRP", "shrunken log2 fold change": -1}, {"sequence": "RRIRDRPPRLPRPRPRPPMQPRP", "shrunken log2 fold change": 0.172}, {"sequence": "RRIRFRPPRLPRPRPRPYACPRP", "shrunken log2 fold change": 0.0338}, {"sequence": "RRIRFRPPRLPRPRPRPFRSPRP", "shrunken log2 fold change": -0.0534}, {"sequence": "RRIRARPPRLPRPRPRPWKQPRP", "shrunken log2 fold change": 0.00355}, {"sequence": "RRIRIRPPRLPRPRPRPTGSPRP", "shrunken log2 fold change": 0.087}, {"sequence": "RRIRLRPPRLPRPRPRPYYVPRP", "shrunken log2 fold change": -0.0539}, {"sequence": "RRIRWRPPRLPRPRPRPPLDPRP", "shrunken log2 fold change": 0.57}, {"sequence": "RRIRRRPPRLPRPRPRPGHSPRP", "shrunken log2 fold change": -0.0814}, {"sequence": "RRIRHRPPRLPRPRPRPGWMPRP", "shrunken log2 fold change": 0.0172}, {"sequence": "RRIRVRPPRLPRPRPRPVYDPRP", "shrunken log2 fold change": -0.182}, {"sequence": "RRIRPRPPRLPRPRPRPYFMPRP", "shrunken log2 fold change": -0.555}, {"sequence": "RRIRARPPRLPRPRPRPPMGPRP", "shrunken log2 fold change": 0.358}, {"sequence": "RRIRERPPRLPRPRPRPRASPRP", "shrunken log2 fold change": -0.0261}, {"sequence": "RRIRVRPPRLPRPRPRPYIYPRP", "shrunken log2 fold change": -0.806}, {"sequence": "RRIRQRPPRLPRPRPRPDQRPRP", "shrunken log2 fold change": -0.00141}, {"sequence": "RRIRHRPPRLPRPRPRPTNLPRP", "shrunken log2 fold change": -0.288}, {"sequence": "RRIRQRPPRLPRPRPRPDWCPRP", "shrunken log2 fold change": -0.229}, {"sequence": "RRIRDRPPRLPRPRPRPVLFPRP", "shrunken log2 fold change": 0.13}, {"sequence": "RRIRIRPPRLPRPRPRPFQTPRP", "shrunken log2 fold change": -0.271}, {"sequence": "RRIRYRPPRLPRPRPRPYWCPRP", "shrunken log2 fold change": -0.0606}, {"sequence": "RRIRRRPPRLPRPRPRPCDQPRP", "shrunken log2 fold change": 0.0305}, {"sequence": "RRIRARPPRLPRPRPRPPMLPRP", "shrunken log2 fold change": 0.805}, {"sequence": "RRIRDRPPRLPRPRPRPTDHPRP", "shrunken log2 fold change": -0.0425}, {"sequence": "RRIRERPPRLPRPRPRPCMKPRP", "shrunken log2 fold change": -0.506}, {"sequence": "RRIRYRPPRLPRPRPRPGAMPRP", "shrunken log2 fold change": 0.986}, {"sequence": "RRIRFRPPRLPRPRPRPVDTPRP", "shrunken log2 fold change": -0.123}, {"sequence": "RRIRIRPPRLPRPRPRPKDAPRP", "shrunken log2 fold change": 0.176}, {"sequence": "RRIRERPPRLPRPRPRPIDSPRP", "shrunken log2 fold change": -0.0823}, {"sequence": "RRIRRRPPRLPRPRPRPCFLPRP", "shrunken log2 fold change": -0.269}, {"sequence": "RRIRLRPPRLPRPRPRPSEWPRP", "shrunken log2 fold change": -0.0637}, {"sequence": "RRIRDRPPRLPRPRPRPGNTPRP", "shrunken log2 fold change": -0.165}, {"sequence": "RRIRPRPPRLPRPRPRPFFQPRP", "shrunken log2 fold change": 0.0612}, {"sequence": "RRIRARPPRLPRPRPRPKWPPRP", "shrunken log2 fold change": 0.751}, {"sequence": "RRIRIRPPRLPRPRPRPCYCPRP", "shrunken log2 fold change": -0.0457}, {"sequence": "RRIRLRPPRLPRPRPRPWCMPRP", "shrunken log2 fold change": -0.408}, {"sequence": "RRIRVRPPRLPRPRPRPYIKPRP", "shrunken log2 fold change": -0.982}, {"sequence": "RRIRQRPPRLPRPRPRPLLLPRP", "shrunken log2 fold change": -0.363}, {"sequence": "RRIRPRPPRLPRPRPRPGWHPRP", "shrunken log2 fold change": 0.248}, {"sequence": "RRIRNRPPRLPRPRPRPERVPRP", "shrunken log2 fold change": 0.11}]}]}
